# B1: 19b antigen-binding fragment (Fab) (Fab, V domains shown)
# VH: EVQLVQSGGALIQPGGSLRLSCAASGFTFVDYAMSWVRQAPGKGLQWVSTIIGSGADTYYTDSVKGRFTISRDNSNNTVHLQMNSLRADDTALYYCVRGVFDLWGQGTLVTVSS
# VL: DIVLTQSPPSLSASVGDRVTITCQASQDISDHLSWFQQKPGKAPKLLVYGVSSLEAGVPSRFSVSGSGTHFTFTVNGLQPEDLATYFCQQYDDLPWTFGPGTVVEVK
# Molecular target: 5768-p27 V3 peptide (HIV-1 clade B isolate 5768-p27)
# Experiment: SPR
binder,measurement,value
B1,koff,0.000147 s⁻¹

# Reference: paper PMC13483476 (2026)
